Test results reported in article PMC2241857.

B1: LPSD incised 5'-dRP substrate (UDG and APE1 treated) (dsDNA)
DNA 1: CTGCAGCTGATGCGC
DNA 2: GTACGGATCCCCGGGTAC
DNA 3: GTACCCGGGGATCCGTACGGCGCATCAGCTGCAG
modifications: uracil (position 16 of S8) removed by UDG; APE1 nick leaves 3'-OH and 5'-dRP on S8[17-34]
B2: 45AGR (recessed) (dsDNA)
DNA 1: GCCTCGCAGCCGTCCAACCAAC
DNA 2: GGACGGCATTGGATCGAGGTTGAGTTGGTTGGACGGCTGCGAGGC
modifications: template 5' phosphate
B3: 45AG1bpDNP (1-nt gapped, non-phosphorylated downstream) (dsDNA)
DNA 1: GCCTCGCAGCCGTCCAACCAAC
DNA 2: CAACCTCGATCCAATGCCGTCC
DNA 3: B2 DNA 2
modifications: no 5' phosphate on downstream oligo (S2); template 5' phosphate
B4: 45AG (1-nt gapped, 5'-phosphorylated downstream) (dsDNA)
DNA 1: GCCTCGCAGCCGTCCAACCAAC
DNA 2: CAACCTCGATCCAATGCCGTCC
DNA 3: B2 DNA 2
modifications: 5' phosphate on downstream oligo (S2) and template

Columns and labels:
DNA polymerase beta WT [1] = molecular target: T1, DNA polymerase beta WT (UniProt P06746 1-335); assay: NaBH4 trapping of Schiff base complex
DNA polymerase beta L22P = DNA polymerase beta L22P (UniProt P06746 1-335, L22P); assay: EMSA
DNA polymerase beta WT [2] = molecular target: T1, DNA polymerase beta WT; assay: EMSA

| Binder | binding result (DNA polymerase beta WT [1]) | Kd (DNA polymerase beta L22P) [nM] | Kd (DNA polymerase beta WT [2]) [nM] |
| --- | --- | --- | --- |
| B1 | binds |  |  |
| B2 |  | 455 ± 100 | 84 ± 18 |
| B3 |  | 291 ± 45 | 20 ± 3 |
| B4 |  | 229 ± 50 | 12 ± 2 |
